{"source": "paper PMC5289526", "about": "“Crystal Structure and Catalytic Mechanism of CouO, a Versatile C-Methyltransferase from Streptomyces rishiriensis” (PLoS ONE, 2017)", "proteins": {"B1": {"name": "CouO, C-methyltransferase from Streptomyces rishiriensis (enzyme)", "chain": "MKIEPITGSEAEAFHRMGSRAFERYNEFVDLLVGAGIADGQTVVDLCCGSGELEIILTSRFPSLNLVGVDLSEDMVRIARDYAAEQGKELEFRHGDAQSPAGMEDLLGKADLVVSRHAFHRLTRLPAGFDTMLRLVKPGGAILNVSFLHLSDFDEPGFRTWVRFLKERPWDAEMQVAWALAHYYAPRLQDYRDALAQAADETPVSEQRIWVDDQGYGVATVKCFARRAAA", "notes": "CouO, SAM-dependent C-methyltransferase of coumermycin A1 biosynthesis, Streptomyces rishiriensis; expected MW 26 kDa; also called CouO-WT; source: purified (last step size exclusion chromatography)"}}, "biological_target": "the molecule itself", "experiment": "SEC; last step of purification; HiLoad 16/60 Superdex 200 pg, 1 ml/min, Hepes pH 7, 100mM NaCl; calibrated with Bio-Rad gel filtration standard", "data": [{"protein": "B1", "values": [{"measurement": "stoichiometry N", "result": 2}]}]}
